{
  "source": "patent US20070189962A1",
  "about": "(GOV OF US AS REPRESENTED BY THE SEC OF HEALTH, published 2007)",
  "molecules": {"B1": {"name": "B5 (scFv displayed on phage) (scFv, V domains shown)", "VH": "EVQLVESGGGLVKPGGSLKLSCAASGFAFSIYDMSWVRQTPEKRLEWVAYISSGGGTTYYPDTVKGRFTISRDNAKNTLYLQMSSLKSEDTAMYYCARHSGYGTHWGVLFAYWGQGTLVTVSA", "VL": "DIQMTQTTSSLSASLGDRVTISCRASQDIHGYLNWYQQKPDGTVKLLIYYTSILHSGVPSRFSGSGSGTDYSLTISNLEQEDFATYFCQQGNTLPWTFGGGTKLEIK", "notes": "also called mutant B5; L-CDR1 HG mutant of HA22"}, "B2": {"name": "B8 (scFv displayed on phage) (scFv, V domains shown)", "VH": "EVQLVESGGGLVKPGGSLKLSCAASGFAFSIYDMSWVRQTPEKRLEWVAYISSGGGTTYYPDTVKGRFTISRDNAKNTLYLQMSSLKSEDTAMYYCARHSGYGTHWGVLFAYWGQGTLVTVSA", "VL": "DIQMTQTTSSLSASLGDRVTISCRASQDIRGYLNWYQQKPDGTVKLLIYYTSILHSGVPSRFSGSGSGTDYSLTISNLEQEDFATYFCQQGNTLPWTFGGGTKLEIK", "notes": "also called L-CDR1 RG mutant of HA22"}, "B3": {"name": "D8 (scFv displayed on phage) (scFv, V domains shown)", "VH": "EVQLVESGGGLVKPGGSLKLSCAASGFAFSIYDMSWVRQTPEKRLEWVAYISSGGGTTYYPDTVKGRFTISRDNAKNTLYLQMSSLKSEDTAMYYCARHSGYGTHWGVLFAYWGQGTLVTVSA", "VL": "DIQMTQTTSSLSASLGDRVTISCRASQDIARYLNWYQQKPDGTVKLLIYYTSILHSGVPSRFSGSGSGTDYSLTISNLEQEDFATYFCQQGNTLPWTFGGGTKLEIK", "notes": "also called L-CDR1 AR mutant of HA22"}, "B4": {"name": "E6 (scFv displayed on phage) (scFv, V domains shown)", "VH": "EVQLVESGGGLVKPGGSLKLSCAASGFAFSIYDMSWVRQTPEKRLEWVAYISSGGGTTYYPDTVKGRFTISRDNAKNTLYLQMSSLKSEDTAMYYCARHSGYGTHWGVLFAYWGQGTLVTVSA", "VL": "DIQMTQTTSSLSASLGDRVTISCRASQDIGRYLNWYQQKPDGTVKLLIYYTSILHSGVPSRFSGSGSGTDYSLTISNLEQEDFATYFCQQGNTLPWTFGGGTKLEIK", "notes": "also called L-CDR1 GR mutant of HA22"}, "B5": {"name": "HA22 (scFv displayed on phage) (scFv, V domains shown)", "VH": "EVQLVESGGGLVKPGGSLKLSCAASGFAFSIYDMSWVRQTPEKRLEWVAYISSGGGTTYYPDTVKGRFTISRDNAKNTLYLQMSSLKSEDTAMYYCARHSGYGTHWGVLFAYWGQGTLVTVSA", "VL": "DIQMTQTTSSLSASLGDRVTISCRASQDISNYLNWYQQKPDGTVKLLIYYTSILHSGVPSRFSGSGSGTDYSLTISNLEQEDFATYFCQQGNTLPWTFGGGTKLEIK", "notes": "also called starting molecule; RFB4 with SSY of H-CDR3 mutated to THW"}},
  "key": {"CD22 (human)": {"biological_target": "CD22 (human) (UniProt P20273)", "test": "cell-based or functional assay"}, "mesothelin": {"biological_target": "mesothelin (UniProt Q13421)", "sequence (Q13421 other isoform, or with tags, fused parts or gaps limits assumed)": "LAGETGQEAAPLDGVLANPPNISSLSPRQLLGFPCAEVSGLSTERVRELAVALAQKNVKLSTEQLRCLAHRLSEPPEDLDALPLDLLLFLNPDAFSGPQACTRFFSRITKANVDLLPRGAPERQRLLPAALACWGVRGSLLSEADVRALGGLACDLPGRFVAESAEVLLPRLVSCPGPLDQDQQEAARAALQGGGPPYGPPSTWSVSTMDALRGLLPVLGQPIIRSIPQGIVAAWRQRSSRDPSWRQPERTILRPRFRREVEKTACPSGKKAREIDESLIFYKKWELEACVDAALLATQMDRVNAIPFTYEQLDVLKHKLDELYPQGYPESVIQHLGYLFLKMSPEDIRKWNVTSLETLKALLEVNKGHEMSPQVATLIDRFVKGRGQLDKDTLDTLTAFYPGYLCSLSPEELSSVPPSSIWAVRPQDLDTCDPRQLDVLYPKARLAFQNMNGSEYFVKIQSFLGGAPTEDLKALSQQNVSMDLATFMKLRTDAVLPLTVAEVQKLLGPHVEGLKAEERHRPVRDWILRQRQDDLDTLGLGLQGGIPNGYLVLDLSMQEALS", "test": "cell-based or functional assay"}, "CD22 [1]": {"biological_target": "T1, CD22 (human, UniProt P20273 20-847)", "T1 construct": "whole, on cells; also called native CD22(αβ) on Daudi cells; CD22 antigen", "T1 sequence (looked up)": "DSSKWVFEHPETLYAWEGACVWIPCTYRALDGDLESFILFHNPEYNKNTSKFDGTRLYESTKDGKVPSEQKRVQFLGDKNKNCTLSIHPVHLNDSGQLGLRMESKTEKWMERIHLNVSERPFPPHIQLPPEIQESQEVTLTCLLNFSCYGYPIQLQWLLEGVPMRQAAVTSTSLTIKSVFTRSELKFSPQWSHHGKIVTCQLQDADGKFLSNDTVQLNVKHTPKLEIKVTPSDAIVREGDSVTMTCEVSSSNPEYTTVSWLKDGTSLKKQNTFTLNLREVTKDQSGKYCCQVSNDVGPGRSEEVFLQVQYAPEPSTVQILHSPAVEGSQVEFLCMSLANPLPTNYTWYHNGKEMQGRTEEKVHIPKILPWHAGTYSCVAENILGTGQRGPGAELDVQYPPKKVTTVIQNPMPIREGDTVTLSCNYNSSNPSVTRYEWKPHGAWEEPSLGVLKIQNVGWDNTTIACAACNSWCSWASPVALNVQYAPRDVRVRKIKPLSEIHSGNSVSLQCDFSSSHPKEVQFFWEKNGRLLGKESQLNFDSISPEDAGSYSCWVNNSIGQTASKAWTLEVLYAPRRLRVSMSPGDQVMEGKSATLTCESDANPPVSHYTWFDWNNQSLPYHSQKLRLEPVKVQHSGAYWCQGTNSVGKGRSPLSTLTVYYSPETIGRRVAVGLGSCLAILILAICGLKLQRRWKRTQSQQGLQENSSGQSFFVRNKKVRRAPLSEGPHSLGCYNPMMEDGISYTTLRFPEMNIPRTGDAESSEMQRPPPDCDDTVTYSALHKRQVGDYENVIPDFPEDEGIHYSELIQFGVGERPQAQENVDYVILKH", "test": "monoclonal phage FACS on Daudi cells"}, "CD22 [2]": {"biological_target": "T1, CD22", "test": "monoclonal phage FACS on Daudi cells; HA22 is the reference that the mutants exceed"}},
  "data": [
    {"molecule": "HA22 (R490A)", "values": [
      {"measurement": "Cytotoxicity activity (IC50), protein synthesis inhibition, Daudi", "setting": "CD22 (human)", "value": 0.2, "unit": "ng/mL"},
      {"measurement": "Cytotoxicity activity (IC50), protein synthesis inhibition, Raji", "setting": "CD22 (human)", "value": 0.3, "unit": "ng/mL"}
    ]},
    {"molecule": "HA22 RFB4 (scFv)-PE38 immunotoxin", "values": [
      {"measurement": "Cytotoxic Activity (IC50), Daudi (30 min incubation)", "setting": "CD22 (human)", "value": 5.6, "unit": "ng/mL"},
      {"measurement": "Cytotoxic Activity (IC50), Daudi, 16 hr, protein synthesis", "setting": "CD22 (human)", "value": 0.52, "unit": "ng/mL"},
      {"measurement": "Cytotoxic Activity (IC50), Namalwa", "setting": "CD22 (human)", "value": 1.2, "unit": "ng/mL"},
      {"measurement": "Cytotoxic Activity (IC50), Ramos", "setting": "CD22 (human)", "value": 4.9, "unit": "ng/mL"}
    ]},
    {"molecule": "RFB4 (dsFv)-PE38", "values": [
      {"measurement": "Cytotoxicity activity (IC50), protein synthesis inhibition, Daudi", "setting": "CD22 (human)", "value": 2.8, "unit": "ng/mL"},
      {"measurement": "Cytotoxicity activity (IC50), protein synthesis inhibition, Raji", "setting": "CD22 (human)", "value": 2.5, "unit": "ng/mL"}
    ]},
    {"molecule": "SS1P", "values": [
      {"measurement": "IC50, inhibition of protein synthesis, A431/K5", "setting": "mesothelin", "value": 0.7, "unit": "ng/mL"},
      {"measurement": "IC50, inhibition of protein synthesis, A1847", "setting": "mesothelin", "value": 4, "unit": "ng/mL"}
    ]},
    {"molecule": "SS1P (R490A)", "values": [
      {"measurement": "IC50, inhibition of protein synthesis, A431/K5", "setting": "mesothelin", "value": 0.45, "unit": "ng/mL"},
      {"measurement": "IC50, inhibition of protein synthesis, A1847", "setting": "mesothelin", "value": 1.5, "unit": "ng/mL"}
    ]},
    {"molecule": "B1", "values": [
      {"measurement": "binding result", "setting": "CD22 [1]", "value": "binds"}
    ]},
    {"molecule": "B2", "values": [
      {"measurement": "binding result", "setting": "CD22 [1]", "value": "binds"}
    ]},
    {"molecule": "B3", "values": [
      {"measurement": "binding result", "setting": "CD22 [1]", "value": "binds"}
    ]},
    {"molecule": "B4", "values": [
      {"measurement": "binding result", "setting": "CD22 [1]", "value": "binds"}
    ]},
    {"molecule": "B5", "values": [
      {"measurement": "binding result", "setting": "CD22 [2]", "value": "binds"}
    ]}
  ]
}
